The supplement of paper PMC10724198
± gives the standard deviation of the averaged measurements.

System: Saccharomyces cerevisiae
Experiment: protein stability index of tFT-peptide fusion (C-terminal peptide) (PSI (0-1 scale)); higher = more stable (slower turnover)
Conditions: genetic background: wild type; temperature: 30 C
Method: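 Multiplexed protein stability (MPS) profiling in S. cerevisiae. Random 12-aa peptides (tFT-X12 library) are fused to the C-terminus of a sfGFP-mCherry tandem fluorescent timer, after mCherry and a GGGS linker. Cells are FACS-sorted into 8 mCherry/sfGFP bins and deep-sequenced. The protein stability index (PSI) is the read-weighted bin average, scaled from 0 (unstable) to 1 (stable). Only peptides with >10 reads are reported; cells were grown at 30 °C in SC-His with glucose.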
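Note: PSI is a weighted mean of sequencing reads over stability bins, variants kept only with over 10 reads, mCherry proximal and sfGFP distal, peptide attached via GGGS linker.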

Sequence | protein stability index
GVCGRWWTCMGV | 0.722 ± 0.061
GVCRGSRVGLVP | 0.714 ± 0.025
GVCRVAVGGGAT | 0.713 ± 0.033
GVCSRAVGSGSF | 0.715 ± 0.067
GVDGGGKWRGWG | 0.651 ± 0.06
GVFASWAWFGVG | 0.71 ± 0.046
GVFGFGARLCIG | 0.6782 ± 0.0043
GVFGLMVGWGWA | 0.665 ± 0.083
GVFGWAGCGVVL | 0.7188 ± 0.0043
GVGGFGFGWSMV | 0.725 ± 0.057
GVGGGRRGGGGG | 0.6409 ± 0.0036
GVGLDSMCVEGF | 0.723 ± 0.1
GVGLLAHLLIYR | 0.556 ± 0.0086
GVGREGEIGGGG | 0.544 ± 0.037
GVGRVGLACFVV | 0.542 ± 0.029
GVGWRGGCEGGV | 0.711 ± 0.062
GVIRGNRLELIV | 0.618 ± 0.025
GVKMVHERHNRV | 0.665 ± 0.057
GVLACVEYSRMS | 0.683 ± 0.0084
GVLARAYPTLWV | 0.68 ± 0.035
GVLGCCGLAWRG | 0.697 ± 0.073
GVLRVRLLAFGL | 0.65 ± 0.026
GVLVGLGWGWGG | 0.7135 ± 0.0011
GVNGFRIVCGGE | 0.674 ± 0.062
GVNLFEIVRSVT | 0.7169 ± 0.0012
GVNTKEEPNEFI | 0.698 ± 0.041

Sequence | protein stability index
GVPQEGHGLEGY | 0.7045 ± 0.00013
GVPRMLVGAFRG | 0.684 ± 0.022
GVQSSAPVKVRI | 0.6551 ± 0.0046
GVRRPYRSDLRL | 0.678 ± 0.023
GVRRVAVLYLLY | 0.527 ± 0.041
GVSAKVRRETVR | 0.725 ± 0.078
GVSCIAEGRGGV | 0.6693 ± 0.0045
GVSGGFVGSSGG | 0.62 ± 0.024
GVSTGSGASVAA | 0.659 ± 0.051
GVVFGWAGYKGT | 0.677 ± 0.034
GVVGDGGRLSGD | 0.667 ± 0.022
GVVGTISLFVLD | 0.61 ± 0.018
GVVPCVVGFICG | 0.687 ± 0.04
GVVRLYYLRIGR | 0.652 ± 0.11
GVVVLGRRMGAG | 0.6441 ± 0.0049
GVVVRGGEWGLD | 0.675 ± 0.061
GVWVMSGPVTRR | 0.716 ± 0.053
GWAVGVGGGRGR | 0.686 ± 0.017
GWAWGVALGVRG | 0.54189 ± 0.00034
GWFFFGCFECGG | 0.731 ± 0.024
GWFRDCEWGASS | 0.712 ± 0.061
GWFWGRGGRGRG | 0.657 ± 0.05
GWGFVGGTVAAV | 0.705 ± 0.034
GWGHYFGLIREQ | 0.698 ± 0.045
GWGLCGRAAGVE | 0.692 ± 0.011
GWGWDAVGVGGP | 0.711 ± 0.0074

Sequence | protein stability index
GWLCARGSSSRP | 0.649 ± 0.0067
GWLGVRVCLAQR | 0.616 ± 0.0081
GWLLGVGDEFRR | 0.734 ± 0.031
GWRGDTSGGGWR | 0.655 ± 0.03
GWRGRRGERARG | 0.749 ± 0.054
GWRGVGVGGGVC | 0.689 ± 0.017
GWSGWFSRVLRG | 0.726 ± 0.039
GWTLIFGRTSEG | 0.678 ± 0.023
GWVKWGVGIGRG | 0.734 ± 0.079
GWWGGEGVEGEP | 0.6846 ± 0.0015
GWWGGGGGAWSG | 0.697 ± 0.065
GYGLGVEAEGLE | 0.715 ± 0.054
GYGSSVYAVQKL | 0.608 ± 0.0096
GYILSFPSVGGW | 0.724 ± 0.049
GYLNWIDTRTSE | 0.79 ± 0.086
GYNLTNVIPGVG | 0.681 ± 0.016
GYPIIIFYSAVQ | 0.529 ± 0.051
GYPPDPSPPRLL | 0.724 ± 0.015
GYRRELGVCSGD | 0.586 ± 0.08
GYTSADHATALY | 0.755 ± 0.054
GYWPWGLARVDV | 0.698 ± 0.017
HACGGVFLSSVR | 0.693 ± 0.025
HAGLLTSSHPGR | 0.705 ± 0.018
HAISHRVFLHSP | 0.665 ± 0.025
HALWRASVGQCG | 0.693 ± 0.068
HAQTNSNSQLLL | 0.677 ± 0.0076

Sequence | protein stability index
HDDQIRASQNKL | 0.747 ± 0.026
HDLVRECVGPVH | 0.602 ± 0.024
HDVGEYVKKNRF | 0.653 ± 0.011
HEGAISLCRQTC | 0.592 ± 0.058
HEIRSQSFGLYV | 0.687 ± 0.025
HETRGKTEQNWM | 0.645 ± 0.053
HFAAVFATSISG | 0.675 ± 0.02
HFCFKVFSVRAP | 0.627 ± 0.018
HFPFYPSAPPPF | 0.713 ± 0.056
HFPTTSITPIYC | 0.601 ± 0.019
HFSDLIRFFFFA | 0.579 ± 0.064
HGCRLCFISSWL | 0.663 ± 0.0057
HGERMRKSPREE | 0.672 ± 0.11
HGGSFSAFWYLL | 0.676 ± 0.027
HGGTGDPAGIES | 0.694 ± 0.013
HGTRPFLAPMTP | 0.672 ± 0.0092
HGVSERPSISEY | 0.6797 ± 0.0066
HGVTPFFSSSPR | 0.632 ± 0.012
HGVVGWKVNVGG | 0.695 ± 0.018
HHIAYTALSVWS | 0.663 ± 0.011
HHVDLHLSLPSP | 0.649 ± 0.032
HILESKKAGPGD | 0.635 ± 0.053
HILSPPPRPPLV | 0.719 ± 0.02
HIPAFLSRFIHG | 0.685 ± 0.038
HISACKFPARTA | 0.692 ± 0.057
HKGRVRACVFGV | 0.666 ± 0.017

Sequence | protein stability index
HKKRPKIRSNEY | 0.622 ± 0.026
HKLYATANHSPM | 0.672 ± 0.1
HLFNLVRIRTDL | 0.703 ± 0.049
HLGTLYSSPLYR | 0.66289 ± 0.00054
HLHAPSPPTLTL | 0.682 ± 0.013
HLIQPDPRASNN | 0.751 ± 0.098
HLKRFLQVHARL | 0.82 ± 0.075
HLLRSDPAWFSG | 0.705 ± 0.009
HLPPPPTLPPFP | 0.6905 ± 0.0068
HLSDAGSPDGAN | 0.628 ± 0.063
HLSLFHIALPPP | 0.6888 ± 0.0053
HLTIVNYIWEIL | 0.549 ± 0.0059
HLVYRRGLEVTF | 0.615 ± 0.061
HMLRLIDFQSIV | 0.685 ± 0.042
HPAPGSPPAAHL | 0.734 ± 0.073
HPASPPTPPPLP | 0.663 ± 0.014
HPFARSLRSQIT | 0.734 ± 0.043
HPGVPGSPFLSC | 0.714 ± 0.041
HPHAIDPKIESI | 0.693 ± 0.035
HPMVFRLAAPRL | 0.779 ± 0.18
HPPHFPTPFFSP | 0.702 ± 0.036
HPPLRPPLGSRF | 0.868 ± 0.045
HPPLTPLRANLP | 0.74 ± 0.039
HPPRVLHGVPSG | 0.629 ± 0.075
HPPSSLLSPPSP | 0.702 ± 0.042
HPRSAYSLAASL | 0.6633 ± 0.00083

Sequence | protein stability index
HPSAALLSSCYK | 0.677 ± 0.047
HPSPFTPPTNPY | 0.733 ± 0.06
HPSPPAPAPLYP | 0.667 ± 0.11
HPSRPPRASPPS | 0.693 ± 0.03
HPVSVKPSESSR | 0.668 ± 0.073
HQRGGPLPSSRR | 0.739 ± 0.12
HQSISLSGAMLT | 0.65 ± 0.0088
HQVPSPPPPGPL | 0.707 ± 0.2
HQYSRHASIRTL | 0.623 ± 0.06
HRCRVGGSRFEK | 0.671 ± 0.036
HRLGNRGGRTLG | 0.6512 ± 0.0057
HRPPATFPVAHP | 0.735 ± 0.042
HRPPATPADPCS | 0.684 ± 0.019
HRPSPSPSPPLP | 0.752 ± 0.056
HRPTRLIKKNLA | 0.732 ± 0.033
HRRMGVGGCLEE | 0.682 ± 0.046
HRVPRLRGQNPP | 0.635 ± 0.0073
HRVVGVTLSVPS | 0.71 ± 0.071
HSALLRSASLSF | 0.705 ± 0.022
HSAPDLPPLPRV | 0.711 ± 0.02
HSCSRPLTPPPF | 0.72 ± 0.028
HSGGRVYSYACI | 0.6851 ± 0.0017
HSIPWTRTRPGC | 0.687 ± 0.016
HSLLPSYPFLSP | 0.715 ± 0.076
HSPHLLSFFSPM | 0.71 ± 0.076
